US20220017615A1 (SHANGHAI PHARMAEXPLORER, published 2022)

Legend:
[1] = target: T1, human CD47, full length, on transfected cells (human, UniProt Q08722 19-323); assay: FACS CHOK1-hCD47; Ab 0.0128 nM
T1 construct: whole, on cells; also called CHOK1-hCD47
Procedure: (§1) The CHOK1-hCD47 stable cell lines and CHOK1-cCD47 stable cell lines were expanded to 90% confluence in a T-75 cell culture flask, the medium was exhausted, washed twice with HBSS buffer (Hanks balanced salt solution) (purchased from Invitrogen), and then treated and collected with enzyme-free cell dissociation solution (Versene solution: purchased from Life technology). The cells were washed twice with HBSS buffer. After counted, the cells were diluted with HBSS to 2×10⁶ cells per ml, added with 1% goat serum blocking solution, wherein the percentage was the mass percantage, incubated on ice for 30 minutes, and then washed twice with HBSS by centrifugation. […] The plate was washed 3 times with FACS buffer by centrifugation, added with 100 μl fixative solution [4% (v/v) Paraformaldehyde] per well to suspend the cells. 10 minutes later, it was washed twice with FACS buffer by centrifugation. The cells were suspended with 100 microliters of FACS buffer, FACS (FACS Calibur, purchased from BD) was used for detection and the results were analyzed.

[2] = target: T2, cynomolgus CD47, on CHOK1-cCD47 stable cell line (cynomolgus); assay: FACS CHOK1-cCD47; Ab 8 nM
T2 construct: whole, on cells; check before use; also called CHOK1/cynoCD47; monkey-derived CD47
Procedure: as §1

[3] = target: T2, cynomolgus CD47, on CHOK1-cCD47 stable …; assay: FACS CHOK1-cCD47; Ab 40 nM
Procedure: as §1

[4] = target: T2, cynomolgus CD47, on CHOK1-cCD47 stable …; assay: FACS CHOK1-cCD47; Ab 0.064 nM
Procedure: as §1

[5] = target: T2, cynomolgus CD47, on CHOK1-cCD47 stable …; assay: FACS CHOK1-cCD47; Ab 200 nM
Procedure: as §1

[6] = target: T3, biotin-labeled CD47 extracellular domain protein (CD47-ECD) (UniProt Q08722 19-139, limits assumed, biotin-labeled (sites not given)); assay: blocking ELISA, biotin-CD47-ECD on coated SIRPα-hFc; Ab 40 nM
T3 construct: extracellular domain; also called CD47 protein

[7] = target: T4, His-tagged CD47 recombinant protein, CD47-His (human, UniProt Q08722 19-141, limits assumed); assay: ELISA on coated CD47-His; Ab 0.004 nM
T4 construct: it is not restated for CD47-His; also called human CD47-His protein; antigen CD47-His; not shown: His tag

[8] = target: T2, cynomolgus CD47, on CHOK1-cCD47 stable …; assay: FACS CHOK1-cCD47; Ab 0.0128 nM
Procedure: as §1

[9] = target: T1, human CD47, full length, on transfected …; assay: FACS CHOK1-hCD47; Ab 200 nM
Procedure: as §1

[10] = target: T1, human CD47, full length, on transfected …; assay: FACS CHOK1-hCD47; Ab 40 nM
Procedure: as §1

[11] = target: T1, human CD47, full length, on transfected …; assay: FACS CHOK1-hCD47; Ab 0.064 nM
Procedure: as §1

[12] = target: T2, cynomolgus CD47, on CHOK1-cCD47 stable …; assay: FACS CHOK1-cCD47; Ab 0 nM (background)
Procedure: as §1

[13] = target: T4, His-tagged CD47 recombinant protein, …; assay: ELISA on coated CD47-His; Ab 0 nM (background)
Procedure: (§2) The plate was sealed with plastic film and incubated at 4° C. overnight. The plate was washed twice with plate washing solution [PBS+0.01% (v/v) Tween20] the next day, and blocking solution [PBS+0.01% (v/v) Tween20 +1% (w/w) BSA] was added to block it at room temperature for 2 hours. […] After incubation at 37° C. for 2 hours, the plates were washed three times with plate washing solution [PBS+0.01% (v/v) Tween 20]. HRP (horseradish peroxidase) labeled secondary antibody (purchased from Sigma) was added, incubated at 37° C. for 2 hours, and then washed three times with plate washing solution [PBS+0.01% (v/v) Tween 20]. 1000 of TMB substrate was added to each well. After incubated at room temperature for 30 minutes, the plate was added with 100 μl of stop solution (1.0N HCl) to each well.

[14] = target: T3, biotin-labeled CD47 extracellular …; assay: blocking ELISA, biotin-CD47-ECD on coated SIRPα-hFc; Ab 0.32 nM
Procedure: (§3) The plate was sealed with plastic film and incubated at 4° C. overnight. The plate was washed twice with plate washing solution [PBS+0.01% (v/v) Tween20] on the next day, and blocking solution [PBS+0.01% (v/v) Tween20 +1% (w/w) BSA] was added to block it at room temperature for 2 hours. […] After incubation at 37° C. for 2 hours, the plate was washed three times with the plate washing solution [PBS+0.01% (v/v) Tween 20]. HRP (horseradish peroxidase) labeled avidin diluent (purchased from Sigma) was added as 100 microliters per well, and after the plate was incubated for 2 hours at 37° C., it was washed 3 times with washing solution [PBS+0.01% (v/v) Tween 20]. 100 μl of TMB substrate was added to each well. After incubated at room temperature for 30 minutes, the plate was added with 100 μl of stop solution (1.0N HCl) to each well.

[15] = target: T3, biotin-labeled CD47 extracellular …; assay: blocking ELISA, biotin-CD47-ECD on coated SIRPα-hFc; Ab 8 nM
Procedure: as §3

[16] = target: T1, human CD47, full length, on transfected …; assay: FACS CHOK1-hCD47; Ab 0.32 nM
Procedure: as §1

[17] = target: T3, biotin-labeled CD47 extracellular …; assay: blocking ELISA, biotin-CD47-ECD on coated SIRPα-hFc; Ab 1.6 nM
Procedure: as §3

[18] = target: T2, cynomolgus CD47, on CHOK1-cCD47 stable …; assay: FACS CHOK1-cCD47; Ab 1.6 nM
Procedure: as §1

[19] = target: T3, biotin-labeled CD47 extracellular …; assay: blocking ELISA, biotin-CD47-ECD on coated SIRPα-hFc; Ab 200 nM
Procedure: as §3

[20] = target: T3, biotin-labeled CD47 extracellular …; assay: blocking ELISA, biotin-CD47-ECD on coated SIRPα-hFc; Ab 0.064 nM
Procedure: as §3

[21] = target: T4, His-tagged CD47 recombinant protein, …; assay: ELISA on coated CD47-His; Ab 66.667 nM
Procedure: as §2

[22] = target: T3, biotin-labeled CD47 extracellular …; assay: blocking ELISA, biotin-CD47-ECD on coated SIRPα-hFc; Ab 0 nM
Procedure: as §3

[23] = target: T1, human CD47, full length, on transfected …; assay: FACS CHOK1-hCD47; Ab 0 nM (background)
Procedure: as §1

[24] = target: T3, biotin-labeled CD47 extracellular …; assay: blocking ELISA, biotin-CD47-ECD on coated SIRPα-hFc; Ab 0.0128 nM
Procedure: as §3

[25] = target: T4, His-tagged CD47 recombinant protein, …; assay: ELISA on coated CD47-His; Ab 0.533 nM
Procedure: as §2

[26] = target: T4, His-tagged CD47 recombinant protein, …; assay: ELISA on coated CD47-His; Ab 0.021 nM
Procedure: as §2

[27] = target: T2, cynomolgus CD47, on CHOK1-cCD47 stable …; assay: FACS CHOK1-cCD47; Ab 0.32 nM
Procedure: as §1

[28] = target: T1, human CD47, full length, on transfected …; assay: FACS CHOK1-hCD47; Ab 1.6 nM
Procedure: as §1

[29] = target: T4, His-tagged CD47 recombinant protein, …; assay: ELISA on coated CD47-His; Ab 0.107 nM
Procedure: as §2

[30] = target: T4, His-tagged CD47 recombinant protein, …; assay: ELISA on coated CD47-His; Ab 13.333 nM
Procedure: as §2

[31] = target: T4, His-tagged CD47 recombinant protein, …; assay: ELISA on coated CD47-His; Ab 2.667 nM
Procedure: as §2

[32] = target: T1, human CD47, full length, on transfected …; assay: FACS CHOK1-hCD47; Ab 8 nM
Procedure: as §1

mean fluorescence intensity [1]	mean fluorescence intensity [2]	mean fluorescence intensity [3]	mean fluorescence intensity [4]	mean fluorescence intensity [5]	OD450 nm of CD47 bound to SIRPα [6]	OD450 nm [7]	mean fluorescence intensity [8]	mean fluorescence intensity [9]	mean fluorescence intensity [10]	mean fluorescence intensity [11]	mean fluorescence intensity [12]	OD450 nm [13]	OD450 nm of CD47 bound to SIRPα [14]	OD450 nm of CD47 bound to SIRPα [15]	mean fluorescence intensity [16]	OD450 nm of CD47 bound to SIRPα [17]	mean fluorescence intensity [18]	OD450 nm of CD47 bound to SIRPα [19]	OD450 nm of CD47 bound to SIRPα [20]	Binder	other results
113	12100	13900	667	8870	0.06	0.18	218	10500	8900	480	75.5	0.05	0.77	0.06	1710	0.15	7190	0.06	2.45	4D10B11 (antibody, V domains shown, Murine hybridoma antibody purified on protein G) VH: QVQLQQSGPELVKPGASVKISCKASGYSFTSYYIHWVKQRPGQGLEWIGWIYPGSGNTKYNEKFKGKATLTADTSSSTADMQLSSLTSEDSAVYYCARRGDWYFDVWGTGTTVTVSS VL: DIVMSQSPSSLVVSVGEKVTMNCKSSQSLLFSGNQKSSLAWYQQKPGQSPKLLIYWASTRESGVPDRFTGSGSGTDFTLIISTVKAEDLAVYSCQQYYSYPLTFGAGTKLELK	OD450 nm [21]: 2.91; OD450 nm of CD47 bound to SIRPα [22]: 2.84; mean fluorescence intensity [23]: 21.9; OD450 nm of CD47 bound to SIRPα [24]: 2.76; OD450 nm [25]: 2.94; OD450 nm [26]: 0.69; mean fluorescence intensity [27]: 2540; mean fluorescence intensity [28]: 4850; OD450 nm [29]: 2.13; OD450 nm [30]: 2.91; OD450 nm [31]: 3.03; mean fluorescence intensity [32]: 8450
120	13200	9760	1450	7040	0.06	0.14	422	9420	9790	386	83.5	0.05	1.06	0.07	1560	0.18	7400	0.06	2.5	25E3B5 (antibody, V domains shown, Murine hybridoma antibody purified on protein G) VH: QVQLQQPGTALVRPGSSVKLSCKASGYTFTSYWMHWVRQRPIKGLEWIGNIDPSDSETHYNQRFKDKVTLTVDKSSNTAYMQLSSLTSEDSAVYYCARWKYHGIGAMDYWGQGTSVTVSS VL: DVQITQSPSYLAASPGETVTISCRTNRNISKFLAWYQEKPGKTNKLLIYSGSTLHSGIPSRFSGSGSGTDFTLTISRLEPEDFAMYYCQQHNEYPWSFGGGTKLEIK	OD450 nm [21]: 2.89; OD450 nm of CD47 bound to SIRPα [22]: 2.91; mean fluorescence intensity [23]: 22.9; OD450 nm of CD47 bound to SIRPα [24]: 2.79; OD450 nm [25]: 2.91; OD450 nm [26]: 0.46; mean fluorescence intensity [27]: 4550; mean fluorescence intensity [28]: 4430; OD450 nm [29]: 1.68; OD450 nm [30]: 2.96; OD450 nm [31]: 3.02; mean fluorescence intensity [32]: 7020
233	16400	13400	998	16500	0.07	0.31	343	6550	9520	759	81.2	0.05	0.68	0.08	2980	0.16	9450	0.07	2.29	20H4G5 (antibody, V domains shown, Murine hybridoma antibody purified on protein G) VH: QVQLQQPGAELVRPGSSVRLSCVTSGYTFTSHWMHWVKQGPIKGLEWIGNIDPSDSETHYNQKFKDKATLTVDKSSSTAYMQLSRLTSDDSAVYYCARWRHLGIGAMDYWGQGTSVIVSS VL: DVQITQSPSYLAASPGETITINCRASKNISKFLAWYQAKPGKSNNLLIYSGSTLQSGIPSRFSGSGSGTDFTLTISRLEPEDFAMYYCQQHNEYPWTFGGGTKLEIK	OD450 nm [21]: 2.9; OD450 nm of CD47 bound to SIRPα [22]: 2.9; mean fluorescence intensity [23]: 23.1; OD450 nm of CD47 bound to SIRPα [24]: 2.81; OD450 nm [25]: 3.02; OD450 nm [26]: 1.15; mean fluorescence intensity [27]: 3310; mean fluorescence intensity [28]: 6160; OD450 nm [29]: 2.61; OD450 nm [30]: 2.94; OD450 nm [31]: 3.01; mean fluorescence intensity [32]: 8470
